Laboratory results published in publication PMC7367201, “G-quadruplexes offer a conserved structural motif for NONO recruitment to NEAT1 architectural lncRNA”.

Tests used:
NONO(53-312) [1] = molecular target: T1, NONO(53-312) (UniProt Q15233 53-312); assay: EMSA; annealed with 100 mM KCl; NONO(53-312) EMSA: 20 mM HEPES pH 7.5, 5.7 mM Tris-HCl, 113 mM KCl, 10% glycerol, 62 mM L-proline, 1% EMPIGEN BB, 0.12 mM EDTA, 4 C 1 h, 10 nM RNA; full-length: 20 mM HEPES pH 7.4, 11 mM Tris, 105 mM KCl, 14% glycerol, 40 mM glycine, 0.2 mM EDTA, 0.5 mM DTT, 0.5% BSA, 25 C; pulldown: 10 mM HEPES pH 7.0, 200 mM KCl, 1% Triton X-100, 1 mM MgCl2, 1 mM DTT, 4 C, washes to 1.6 M KCl; conditions: protein: recombinant; tags: His tag removed by TEV; chain copies: 2; label: 3' Cy5; intramolecular G4, annealed with 100 mM KCl
T1 sequence: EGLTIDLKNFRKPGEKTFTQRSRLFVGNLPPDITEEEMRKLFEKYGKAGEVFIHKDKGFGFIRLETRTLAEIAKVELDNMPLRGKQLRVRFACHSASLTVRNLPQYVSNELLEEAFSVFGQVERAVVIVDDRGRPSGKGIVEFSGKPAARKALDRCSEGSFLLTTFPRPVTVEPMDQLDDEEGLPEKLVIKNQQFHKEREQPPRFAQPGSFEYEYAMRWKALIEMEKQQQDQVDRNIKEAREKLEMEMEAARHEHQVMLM

NONO(53-312) [2] = molecular target: T1, NONO(53-312); assay: competition; vs labelled NEAT1_22619 G4, 1-200x excess; no significant competition; NONO(53-312) EMSA: 20 mM HEPES pH 7.5, 5.7 mM Tris-HCl, 113 mM KCl, 10% glycerol, 62 mM L-proline, 1% EMPIGEN BB, 0.12 mM EDTA, 4 C 1 h, 10 nM RNA; full-length: 20 mM HEPES pH 7.4, 11 mM Tris, 105 mM KCl, 14% glycerol, 40 mM glycine, 0.2 mM EDTA, 0.5 mM DTT, 0.5% BSA, 25 C; pulldown: 10 mM HEPES pH 7.0, 200 mM KCl, 1% Triton X-100, 1 …; conditions: protein: recombinant; tags: His tag removed by TEV; chain copies: 2; label: none; annealed with 100 mM KCl
NONO full-length = molecular target: T2, NONO full-length (UniProt Q15233 1-471); assay: EMSA; annealed with 100 mM KCl; complex retained in wells; NONO(53-312) EMSA: 20 mM HEPES pH 7.5, 5.7 mM Tris-HCl, 113 mM KCl, 10% glycerol, 62 mM L-proline, 1% EMPIGEN BB, 0.12 mM EDTA, 4 C 1 h, 10 nM RNA; full-length: 20 mM HEPES pH 7.4, 11 mM Tris, 105 mM KCl, 14% glycerol, 40 mM glycine, 0.2 mM EDTA, 0.5 mM DTT, 0.5% BSA, 25 C; pulldown: 10 mM HEPES pH 7.0, 200 mM KCl, 1% Triton X-100, 1 mM MgCl2, 1 mM DTT, 4 C, …; conditions: protein: commercial; tags: MYC/DDK; chain copies: 2; label: 3' Cy5; intramolecular G4, annealed with 100 mM KCl
T2 sequence: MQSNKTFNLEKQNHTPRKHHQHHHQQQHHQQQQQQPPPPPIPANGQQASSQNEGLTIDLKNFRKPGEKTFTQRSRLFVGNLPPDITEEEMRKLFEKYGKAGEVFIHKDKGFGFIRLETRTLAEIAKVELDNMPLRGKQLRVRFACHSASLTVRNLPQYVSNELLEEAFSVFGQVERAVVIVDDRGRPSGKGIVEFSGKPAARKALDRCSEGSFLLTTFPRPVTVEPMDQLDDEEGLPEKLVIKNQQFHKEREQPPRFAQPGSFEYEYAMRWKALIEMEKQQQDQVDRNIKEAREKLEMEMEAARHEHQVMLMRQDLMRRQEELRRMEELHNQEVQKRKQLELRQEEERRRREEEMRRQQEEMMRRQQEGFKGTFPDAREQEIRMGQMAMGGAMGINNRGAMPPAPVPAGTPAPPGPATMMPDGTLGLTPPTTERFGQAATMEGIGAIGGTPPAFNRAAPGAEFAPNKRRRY

NONO(53-312) [3] = molecular target: T1, NONO(53-312); assay: competition; vs labelled NEAT1_22619 G4, 1-200x excess; NONO(53-312) EMSA: 20 mM HEPES pH 7.5, 5.7 mM Tris-HCl, 113 mM KCl, 10% glycerol, 62 mM L-proline, 1% EMPIGEN BB, 0.12 mM EDTA, 4 C 1 h, 10 nM RNA; full-length: 20 mM HEPES pH 7.4, 11 mM Tris, 105 mM KCl, 14% glycerol, 40 mM glycine, 0.2 mM EDTA, 0.5 mM DTT, 0.5% BSA, 25 C; pulldown: 10 mM HEPES pH 7.0, 200 mM KCl, 1% Triton X-100, 1 mM MgCl2, 1 mM DTT, 4 C, …; conditions: protein: recombinant; tags: His tag removed by TEV; chain copies: 2; label: none; intramolecular G4

Row | Binder | binding result (NONO(53-312) [1]) | binding result (NONO(53-312) [3]) | also measured
1 | GGGGCCGGGGCCGGGGCCGGGGCC (structured_RNA) [(GGGGCC)4 G-quadruplex] | binds | – | –
2 | AAAAAGGUAAG (ssRNA) [5'-Splice Site RNA] | – | – | binding result (NONO(53-312) [2]): no binding
3 | GGGAGGGAGGGAGGG (structured_RNA) [NEAT1_22619 G-quadruplex] | binds | – | binding result (NONO full-length): binds
4 | GGGGCCGGGGCCGGGGCCGGGGCC (structured_RNA) [(GGGGCC)4 G-quadruplex competitor] | – | binds | –
5 | GGGAGGGAGGGAGGG (structured_RNA) [NEAT1_22619 G-quadruplex competitor] | – | binds | –
